Laboratory results: PMC4377080, “Probing Bunyavirus N protein oligomerisation using mass spectrometry” (Rapid Communications in Mass Spectrometry, 2014)
Values joined by “and” are separate entries in the source; they are usually repeats but may differ in a detail not shown here. Equal entries are not always repeated.

Tests used:
[1] = target: T1, SBV-N nucleocapsid protein (Schmallenberg virus, UniProt H2AM13 1-233); assay: native nanoESI-MS, CID MS/MS; N:RNA 4:2, 5:2; 4:2 also in mixture with BUNV-N; 50 mM ammonium acetate, pH 6.8 (stated for RNA-free BUNV-N); 10 uM final N protein (monomer basis); temperature not given; settings: protein: recombinant; tags: His6-SUMO, removed; chain copies: 4
T1 sequence: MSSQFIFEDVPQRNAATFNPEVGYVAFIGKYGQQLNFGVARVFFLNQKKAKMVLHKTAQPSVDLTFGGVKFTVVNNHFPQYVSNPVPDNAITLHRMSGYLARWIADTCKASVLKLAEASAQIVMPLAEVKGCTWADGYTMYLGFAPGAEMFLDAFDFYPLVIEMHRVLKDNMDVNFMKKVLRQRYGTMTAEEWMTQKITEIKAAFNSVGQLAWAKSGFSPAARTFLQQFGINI

[2] = target: T2, BUNV-N nucleocapsid protein (Bunyamwera virus, UniProt P16495 1-233); assay: native nanoESI-MS, CID MS/MS; N:RNA 3:1, 4:2 (major), 5:2, 6:3; 4:2 also in mixture with SBV-N; 50 mM ammonium acetate, pH 6.8 (stated for RNA-free BUNV-N); 10 uM final N protein (monomer basis); temperature not given; settings: protein: recombinant; tags: His6-SUMO, removed
[3] = target: T1, SBV-N nucleocapsid protein; assay: native nanoESI-MS; N:RNA 4:4 (major), 8:8, 10:10, 12:12; 50 mM ammonium acetate, pH 6.8 (stated for RNA-free BUNV-N); 10 uM final N protein (monomer basis); temperature not given; settings: protein: recombinant; tags: His6-SUMO, removed; chain copies: 4
[4] = target: T2, BUNV-N nucleocapsid protein; assay: native nanoESI-MS; N:RNA 3:2, 3:3, 4:4 (3:3 and 4:4 major); mixed at 2:1; 50 mM ammonium acetate, pH 6.8 (stated for RNA-free BUNV-N); 10 uM final N protein (monomer basis); temperature not given; settings: protein: recombinant; tags: His6-SUMO, removed
[5] = target: the molecule itself; assay: native MS; nano-ESI-MS of RNA-free N protein (10 μM monomer) incubated with synthetic 48-mer RNA
[6] = target: the molecule itself; assay: native MS; nano-ESI-MS of RNA-free N protein (10 μM monomer) incubated with synthetic 60-mer RNA
[7] = target: the molecule itself; assay: native MS; nano-ESI-MS of RNA-free N protein (10 μM monomer) incubated with synthetic 12-mer RNA; 2:1 N/RNA molar ratio for BUNV-N
[8] = target: the molecule itself; assay: native MS; nano-ESI-MS of RNA-free N protein (10 μM monomer) incubated with synthetic 24-mer RNA
[9] = target: the molecule itself; assay: native MS; nano-ESI-MS of BUNV-N bound to endogenous E. coli RNA (as purified; traces also left after the RNA-removal step); ammonium acetate buffer pH 6.8
[10] = target: T1, SBV-N nucleocapsid protein; assay: native nanoESI-MS; N:RNA 4:1 and 5:1 (equal major), 6:1, 8:1; 50 mM ammonium acetate, pH 6.8 (stated for RNA-free BUNV-N); 10 uM final N protein (monomer basis); temperature not given; settings: protein: recombinant; tags: His6-SUMO, removed; chain copies: 4
[11] = target: T2, BUNV-N nucleocapsid protein; assay: native nanoESI-MS; N:RNA 6:1, low population; 50 mM ammonium acetate, pH 6.8 (stated for RNA-free BUNV-N); 10 uM final N protein (monomer basis); temperature not given; settings: protein: recombinant; tags: His6-SUMO, removed
[12] = target: T1, SBV-N nucleocapsid protein; assay: native nanoESI-MS; N:RNA 3:1, 4:1 (major), 4:2, 5:2; 50 mM ammonium acetate, pH 6.8 (stated for RNA-free BUNV-N); 10 uM final N protein (monomer basis); temperature not given; settings: protein: recombinant; tags: His6-SUMO, removed; chain copies: 4
[13] = target: T2, BUNV-N nucleocapsid protein; assay: native nanoESI-MS; N:RNA 5:1; 50 mM ammonium acetate, pH 6.8 (stated for RNA-free BUNV-N); 10 uM final N protein (monomer basis); temperature not given; settings: protein: recombinant; tags: His6-SUMO, removed

AGUAGUGUACUCCACACUACAAAC (ssRNA) [24-mer RNA]
binding result [1]: binds | binding result [2]: binds

AGUAGUGUACUC (ssRNA) [12-mer RNA]
binding result [3]: binds | binding result [4]: binds

B1: Schmallenberg virus nucleocapsid (N) protein (natural protein)
chain: MSSQFIFEDVPQRNAATFNPEVGYVAFIGKYGQQLNFGVARVFFLNQKKAKMVLHKTAQPSVDLTFGGVKFTVVNNHFPQYVSNPVPDNAITLHRMSGYLARWIADTCKASVLKLAEASAQIVMPLAEVKGCTWADGYTMYLGFAPGAEMFLDAFDFYPLVIEMHRVLKDNMDVNFMKKVLRQRYGTMTAEEWMTQKITEIKAAFNSVGQLAWAKSGFSPAARTFLQQFGINI
notes: Nucleocapsid (N) protein of Schmallenberg virus (SBV); measured monomer mass 26 269 Da; also called SBV-N; SBVN; source: tag removed; high salt-treated
stoichiometry N [5]: 3 | stoichiometry N [6]: 6 | stoichiometry N [7]: 4 and 8 and 10 and 12 | stoichiometry N [8]: 5

B2: Bunyamwera virus nucleocapsid (N) protein (natural protein)
chain: MIELEFHDVAANTSSTFDPEVAYANFKRVHTTGLSYDHIRIFYIKGREIKTSLAKRSEWEVTLNLGGWKITVYNTNFPGNRNNPVPDDGLTLHRLSGFLARYLLEKMLKVSEPEKLIIKSKIINPLAEKNGITWNDGEEVYLSFFPGSEMFLGTFRFYPLAIGIYKVQRKEMEPKYLEKTMRQRYMGLEAATWTVSKLTEVQSALTVVSSLGWKKTNVSAAARDFLAKFGINM
notes: Nucleocapsid (N) protein of Bunyamwera virus (BUNV); As purified it carries E. coli RNA (tetramer with about 44 nt); the RNA-free form is obtained by high salt treatment; also called BUNV-N; BUNVN; source: tag removed; endogenous RNA removed with high ionic strength buffers where stated
stoichiometry N [9]: 4 | stoichiometry N [7]: 3 | stoichiometry N [8]: 5 and 6

B3: 60-mer RNA (ssRNA)
RNA: AGUAGUGUACUCCACACUACAAACUUGCUAUUGUUGAAAAUCGCUGUGCUAUUAAAUCCA
binding result [10]: binds | binding result [11]: binds

AGUAGUGUACUCCACACUACAAACUUGCUAUUGUUGAAAAUCGCUGUG (ssRNA) [48-mer RNA]
binding result [12]: binds | binding result [13]: binds
